In US20040071656A1, “Modulation of heat-shock-protein-based immunotherapies” (priority 2001, published 2004):

Experiments:
human CD40 [1] = target: T1, human CD40 (Homo sapiens, UniProt P25942); assay: P38 kinase assay in HEK293T-CD40 cells; type: cell-based; settings: for phosphorylated p38 in HEK293T-CD40 cells: 100 nM, 20 min at 37° C., ADP and peptide C
T1 construct: CD40 full-length cDNA was cloned by PCR; expressed in transfected cells
Protocol: P38 Kinase Assay. Twenty-four h prior to P38 kinase assays HEK293T-CD40 and HEK293T-MCAT cells were seeded into a 24-well plate coated with collagen and incubated with 100 nM CD40L (Alexis), HSP70, N70-domain, C70-domain, or DnaK for 20 min at 37° C. DnaK, Hsp70, N70 and C70 were preincubated with either 2 mM ADP and 30 μM peptide C or 40 μM AMPPNP (Sigma). Upon stimulation cells were washed twice with ice-cold PBS, and lysed in SDS-sample buffer. Equal amounts of protein were analyzed by immunoblotting with antibodies directed against phosphorylated P38 (Promega), and with a monoclonal anti-tubulin antibody (J. Wehland, Braunschweig, Germany).
Binding of Hsp70-peptide complex to CD40 results in intracellular signaling and peptide uptake. Binding of CD40 ligand to CD40 induces signal transduction via phosphorylation of p38, a component of the signal cascade between activated CD40 and NF-kappaB, which eventually results in the release of TNF-alpha and subsequent secretion of interferon-gamma (Pullen et al., 1999). Binding of the C-terminal domain of DnaK to CD40 was reported to have a similar effect (Wang et al., 2001, idem). We therefore investigated whether binding of human Hsp70-peptide complex to CD40 also stimulates this signaling pathway. These experiments were carried out in HEK293T cells stably transfected with human CD40 cDNA. After incubation with either Hsp70-peptide complex, recombinant Hsp70 domains, or DnaK, in the presence of ADP or the non-hydrolysable ATP analogue AMPPNP, cells were lysed, and lysates analyzed by immunoblotting with an antibody directed against active (i.e., phosphorylated) p38.
Details for FIG. 6. Binding of Hsp70 complex to CD40-expressing HEK293T cells induces signaling via p38 and causes peptide uptake. […] Thereafter cells were washed, solubilized in SDS-sample buffer, and analyzed by immunoblotting with antibodies directed against phosphorylated (active) p38. […] Thereafter cells were washed, incubated for 15 min at 37° C., and processed for fluorescence microscopy. […]

human CD40 [2] = target: T1, human CD40; assay: Uptake of peptide C-FITC in HEK293T-CD40 cells, confocal microscopy; type: cell-based; settings: 0.5 μM protein, 5 μM peptide C-FITC, ADP, 30 min 0° C. then 15 min 37° C.
Protocol: For experiments to study uptake of Hsp70/peptide C-FITC complex, HEK293T-CD40 and HEK293T-MCAT cells were seeded on collagen-coated cover slips 24 h prior to the experiment. For complex formation Hsp70, its N-terminal domain (N70) or its C-terminal domain (C70) were preincubated with a 10-fold molar excess of peptide C-FITC for 30 min at 37° C., as described above for the biotinylated proteins. HEK293T-CD40 and HEK293T-MCAT were incubated with 0.5 μM of Hsp70, N70 or C70, preincubated with 2 mM ADP and 5 μM peptide C-FITC, or 5 μM peptide C-FITC alone for 30 min on ice. Thereafter the cells were washed three times with medium, incubated for 15 min at 37° C., and fixed, embedded in Fluoromount-G and analyzed by confocal microscopy (LSM 510, Zeiss).
Next, the binding of Hsp70-peptide complex to CD40 was studied, which results in the uptake of peptide. To this end, HEK293T-CD40 cells and HE293T-MCAT cells (not expressing CD40) were incubated with a fluorescent (FITC) derivative of peptide C for 30 min at 0° C. in the presence of ADP, with or without Hsp70 or its two domains. After removal of excess material, the cells were incubated at 37° C. for 15 min, fixed and then analyzed by fluorescence microscopy. […] (FIG. 6B, panel 1). […] Neither did HEK293T-MCAT control cells give rise to a signal under any of the conditions tested (not shown). We conclude that the specific interaction of CD40 with Hsp70-peptide complex mediates the uptake of peptide.
Details for FIG. 6. Binding of Hsp70 complex to CD40-expressing HEK293T cells induces signaling via p38 and causes peptide uptake. A. HEK293T-cells, stably transfected with cDNA encoding human CD40 or the unrelated membrane protein murine cationic amino acid transporter (MCAT) were incubated for 20 min at 37° C. with CD40L or with Hsp70, C70, N70, bacterial DnaK either in the presence of ADP or AMPPNP, or buffer alone. Thereafter cells were washed, solubilized in SDS-sample buffer, and analyzed by immunoblotting with antibodies directed against phosphorylated (active) p38. Blots were also developed with an antibody against tubulin in order to control for equal loading. B. Cells were incubated at 0° C. for 30 min with recombinant human Hsp70, N70, or C70, all in the presence FITC-labeled peptide, or with the FITC-labeled peptide alone. Thereafter cells were washed, incubated for 15 min at 37° C., and processed for fluorescence microscopy. Upper left panel: Hsp70, upper right panel: FITC-labeled peptide alone, lower left panel: C70, lower right panel: N70. Only cells stably transfected with CD40 are shown. Cell boundaries are emphasized with broken lines.

T1 sequence (P25942 21-277): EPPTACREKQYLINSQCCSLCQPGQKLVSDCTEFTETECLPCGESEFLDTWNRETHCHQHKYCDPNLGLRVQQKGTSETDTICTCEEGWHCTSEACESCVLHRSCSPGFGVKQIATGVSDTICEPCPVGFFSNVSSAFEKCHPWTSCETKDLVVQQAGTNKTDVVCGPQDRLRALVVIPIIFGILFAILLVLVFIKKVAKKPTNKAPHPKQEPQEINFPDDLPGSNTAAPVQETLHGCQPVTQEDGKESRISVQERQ

Substance: Hsp70: Recombinant human heat shock protein 70, expressed and purified as His-tagged protein
- phosphorylated p38 in HEK293T-CD40 cells (human CD40 [1]): caused an increase in phosphorylated p38 to an extent comparable to that observed with DnaK
- activation of p38 by Hsp70, nucleotide dependence (human CD40 [1]; ADP versus AMPPNP, compared with same molar concentration of CD40 ligand): significant, and depended on the presence of ADP
- uptake of fluorescent (FITC) peptide C into HEK293T-CD40 cells (human CD40 [2]): fluorescent peptide was observed in punctuate intracellular structures only in cells expressing CD40

Substance: N70: Recombinant N-terminal ATPase domain of human Hsp70, residues 5-381 (SEQ ID NO: 1)
- phosphorylated p38 in HEK293T-CD40 cells (human CD40 [1]): caused an increase in phosphorylated p38 to an extent comparable to that observed with DnaK
- uptake of fluorescent (FITC) peptide C into HEK293T-CD40 cells (human CD40 [2]): did not result in a peptide signal above background
